From patent publication US10766960 (dated 2020)
Where two headings read alike, the source gives them in different places.

T1: FcgRIIa R (human, UniProt P12318)
T1 chain: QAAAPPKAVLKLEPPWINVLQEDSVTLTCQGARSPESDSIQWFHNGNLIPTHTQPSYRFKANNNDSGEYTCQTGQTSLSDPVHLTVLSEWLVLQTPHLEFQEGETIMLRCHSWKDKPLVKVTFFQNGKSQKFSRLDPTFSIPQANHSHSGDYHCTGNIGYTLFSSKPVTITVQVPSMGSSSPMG

T2: FcgRIIb (human, UniProt P31994)
T2 chain: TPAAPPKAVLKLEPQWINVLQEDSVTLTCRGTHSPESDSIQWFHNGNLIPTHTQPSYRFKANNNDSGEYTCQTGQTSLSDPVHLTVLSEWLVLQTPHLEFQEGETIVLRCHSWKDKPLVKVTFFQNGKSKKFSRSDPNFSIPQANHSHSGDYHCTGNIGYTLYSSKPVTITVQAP

T3: FcgRIIa H (human, UniProt P12318)
T3 chain: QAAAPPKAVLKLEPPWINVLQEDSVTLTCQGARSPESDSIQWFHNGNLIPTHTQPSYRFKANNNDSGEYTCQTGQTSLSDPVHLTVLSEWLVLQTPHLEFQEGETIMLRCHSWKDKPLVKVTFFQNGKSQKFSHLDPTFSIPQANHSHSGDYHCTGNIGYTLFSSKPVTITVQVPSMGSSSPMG

T4: FcgRIa (human, UniProt P12314)
T4 chain: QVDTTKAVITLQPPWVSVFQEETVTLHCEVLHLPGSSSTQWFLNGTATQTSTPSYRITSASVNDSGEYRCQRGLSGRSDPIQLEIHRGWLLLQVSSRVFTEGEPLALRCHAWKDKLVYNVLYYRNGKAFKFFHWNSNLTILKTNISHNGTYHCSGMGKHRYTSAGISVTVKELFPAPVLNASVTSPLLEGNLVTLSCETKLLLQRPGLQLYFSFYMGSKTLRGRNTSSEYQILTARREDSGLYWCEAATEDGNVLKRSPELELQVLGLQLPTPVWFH


How the values were obtained:
Assay in all cases: SPR
FcgRIIa R [1] = biological target: T1, FcgRIIa R
FcgRIIIa V [2] = biological target: T5, FcgRIIIa V (human, UniProt P08637)
T5 sequence (P08637 17-208 F176V): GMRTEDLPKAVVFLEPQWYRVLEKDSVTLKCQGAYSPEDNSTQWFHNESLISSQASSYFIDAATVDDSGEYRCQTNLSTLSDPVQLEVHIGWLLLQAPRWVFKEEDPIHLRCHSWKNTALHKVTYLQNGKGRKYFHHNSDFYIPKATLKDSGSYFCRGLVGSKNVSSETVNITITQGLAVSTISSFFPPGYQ

FcgRIIb [3] = biological target: T2, FcgRIIb
FcgRIIIa F [4] = biological target: T6, FcgRIIIa F (human, UniProt P08637)
T6 sequence (P08637 17-208): as the sequence (P08637 17-208 F176V) above, with V160F counted along it

FcgRIIb [5] = biological target: T2, FcgRIIb
FcgRIIa R [6] = biological target: T1, FcgRIIa R
FcgRIIIa V [7] = biological target: T5, FcgRIIIa V; remark: listed apart in the source
FcgRIIa H [8] = biological target: T3, FcgRIIa H
FcgRIIb [9] = biological target: T2, FcgRIIb
FcgRIa [10] = biological target: T4, FcgRIa
FcgRIa [11] = biological target: T4, FcgRIa
FcgRIIIa F [12] = biological target: T6, FcgRIIIa F; remark: listed apart in the source
FcgRIIa H [13] = biological target: T3, FcgRIIa H
FcgRIIb [14] = biological target: T2, FcgRIIb
FcgRIIIa F [15] = biological target: T6, FcgRIIIa F; remark: listed apart in the source
FcgRIa [16] = biological target: T4, FcgRIa
FcgRIIa H [17] = biological target: T3, FcgRIIa H
FcgRIIa R [18] = biological target: T1, FcgRIIa R
FcgRIIIa V [19] = biological target: T5, FcgRIIIa V; remark: listed apart in the source

Row | Binder | Kd (FcgRIIa R [1]) [nM] | Kd (FcgRIIIa V [2]) [nM] | Kd (FcgRIIb [3]) [nM] | Kd (FcgRIIIa F [4]) [nM] | Kd (FcgRIIb [5]) [nM] | Kd (FcgRIIa R [6]) [nM] | Kd (FcgRIIIa V [7]) [nM] | Kd (FcgRIIa H [8]) [nM] | Kd (FcgRIIb [9]) [nM] | Kd (FcgRIa [10]) [nM] | Kd (FcgRIa [11]) [nM] | Kd (FcgRIIIa F [12]) [nM] | Kd (FcgRIIa H [13]) [nM] | Kd (FcgRIIb [14]) [nM] | Kd (FcgRIIIa F [15]) [nM] | Kd (FcgRIa [16]) [nM] | Kd (FcgRIIa H [17]) [nM] | Kd (FcgRIIa R [18]) [nM] | Kd (FcgRIIIa V [19]) [nM]
1 | H240-Kn033/H240-Hl033/L73-k0 (antibody) chain 1: not shown chain 2: not shown chain 3: DIQMTQSPSSLSASVGDRVTITCRASQDIHKYIAWYQQKPGQAPRLLIQYTSTLQPGVPSRFSGSGSGTDYTFTISSLQPEDIATYYCLQYEQLRTFGGGTKVEIKRTVAAPSVFIFPPSDEQLKSGTASVVCLLNNFYPREAKVQWKVDNALQSGNSQESVTEQDSKDSTYSLSSTLTLSKADYEKHKVYACEVTHQGLSSPVTKSFNRGEC | 1000 | 390 | 3300 | 290 | 4200 | 740 | 48 | 930 | 4100 | 0.25 | 0.095 | 2600 | 520 | – | – | – | – | – | –
2 | H240-Kn032/H240-Hl032/L73-k0 (antibody) chain 1: QDQLVQSGAEVKKPGASVKVSCKASGFNIKDTYIQWVRQAPGQGLEWMGRIDPLRKQTKYREKFEGRVTITADTSTNTAYMELSSLRSEDTAVYYCVRSGREFDYWGQGTLVTVSSASTKGPSVFPLAPSSKSTSGGTAALGCLVKDYFPEPVTVSWNSGALTSGVHTFPAVLQSSGLYSLSSVVTVPSSSLGTQTYICNVNHKPSNTKVDKKVEPKSCDKTHTCPPCPAPELLGGPDVFLFPPKPKDTLMISRTPEVTCVVVDVSHEDPEVKFNWYVDGVEVHNAKTKPREEQYNSTYRVVSVLTVLHQDWLNGKEYKCKVSNKALPLPEEKTISKAKGQPREPQVCTLPPSRDELTKNQVSLWCLVKGFYPSDIAVEWESNGQPENNYKTTPPVLDSDGSFFLYSKLTVDKSRWQQGNVFSCSVMHEALHNHYTQKSLSLSP chain 2: QDQLVQSGAEVKKPGASVKVSCKASGFNIKDTYIQWVRQAPGQGLEWMGRIDPLRKQTKYREKFEGRVTITADTSTNTAYMELSSLRSEDTAVYYCVRSGREFDYWGQGTLVTVSSASTKGPSVFPLAPSSKSTSGGTAALGCLVKDYFPEPVTVSWNSGALTSGVHTFPAVLQSSGLYSLSSVVTVPSSSLGTQTYICNVNHKPSNTKVDKKVEPKSCDKTHTCPPCPAPELLGGPDVFLFPPKPKDTLMISRTPEVTCVVVDVSHEDPEVKFNWYVDGVEVHNAKTKPREEQYNSTYRVVSVLTVLHQDWLNGKEYKCKVSNKALPLPEEKTISKAKGQPREPQVYTLPPSRCELTKNQVSLSCAVKGFYPSDIAVEWESNGQPENNYKTTPPVLDSDGSFFLVSKLTVDKSRWQQGNVFSCSVMHEALHNHYTQKSLSLSP chain 3: DIQMTQSPSSLSASVGDRVTITCRASQDIHKYIAWYQQKPGQAPRLLIQYTSTLQPGVPSRFSGSGSGTDYTFTISSLQPEDIATYYCLQYEQLRTFGGGTKVEIKRTVAAPSVFIFPPSDEQLKSGTASVVCLLNNFYPREAKVQWKVDNALQSGNSQESVTEQDSKDSTYSLSSTLTLSKADYEKHKVYACEVTHQGLSSPVTKSFNRGEC | 340 | 3.1 | – | – | 630 | – | – | 690 | 620 | 0.073 | – | 9.1 | – | – | – | – | – | – | –

Further lines, results first:

Row | Kd (FcgRIIa R [1]) [nM] | Kd (FcgRIIIa V [2]) [nM] | Kd (FcgRIIb [3]) [nM] | Kd (FcgRIIIa F [4]) [nM] | Kd (FcgRIIb [5]) [nM] | Kd (FcgRIIa R [6]) [nM] | Kd (FcgRIIIa V [7]) [nM] | Kd (FcgRIIa H [8]) [nM] | Kd (FcgRIIb [9]) [nM] | Kd (FcgRIa [10]) [nM] | Kd (FcgRIa [11]) [nM] | Kd (FcgRIIIa F [12]) [nM] | Kd (FcgRIIa H [13]) [nM] | Kd (FcgRIIb [14]) [nM] | Kd (FcgRIIIa F [15]) [nM] | Kd (FcgRIa [16]) [nM] | Kd (FcgRIIa H [17]) [nM] | Kd (FcgRIIa R [18]) [nM] | Kd (FcgRIIIa V [19]) [nM] | Binder
3 | – | – | – | – | – | – | – | – | – | – | – | – | – | 290 | 12 | < 0.019 | 42 | 19 | 2.2 | H240-Kn192/H240-Hl204/L73-k0 (antibody) chain 1: QDQLVQSGAEVKKPGASVKVSCKASGFNIKDTYIQWVRQAPGQGLEWMGRIDPLRKQTKYREKFEGRVTITADTSTNTAYMELSSLRSEDTAVYYCVRSGREFDYWGQGTLVTVSSASTKGPSVFPLAPSSKSTSGGTAALGCLVKDYFPEPVTVSWNSGALTSGVHTFPAVLQSSGLYSLSSVVTVPSSSLGTQTYICNVNHKPSNTKVDKKVEPKSCDKTHTCPPCPAPEYNWGPMVFLFPPKPKDTLMISRTPEVTCVVVDVSDEDPEVKFNWYVDGVEVHNAKTKPREKQYNATYRVVSVLTVLHQDWLNGKEYKCKVSNKDLPAPIEKTISKAKGQPREPQVCTLPPSRDELTKNQVSLWCLVKGFYPSDIAVEWESNGQPENNYKTTPPVLDSDGSFFLYSKLTVDKSRWQQGNVFSCSVMHEALHNHYTQKSLSLSP chain 2: QDQLVQSGAEVKKPGASVKVSCKASGFNIKDTYIQWVRQAPGQGLEWMGRIDPLRKQTKYREKFEGRVTITADTSTNTAYMELSSLRSEDTAVYYCVRSGREFDYWGQGTLVTVSSASTKGPSVFPLAPSSKSTSGGTAALGCLVKDYFPEPVTVSWNSGALTSGVHTFPAVLQSSGLYSLSSVVTVPSSSLGTQTYICNVNHKPSNTKVDKKVEPKSCDKTHTCPPCPAPELLTGPSVFLFPPKPKDTLMISRTPEVTCVVVDVSHEEPEVKFNWYVDGVEVHNAKTKPREEQYNSTYRVVSVLTVLHQDWLNGKEYKCKVSNDALPKPEEETISKAKGQPREPQVYTLPPSRCELTKNQVSLSCAVKGFYPSDIAVEWESNGQPENNYKTTPPVLDSDGSFFLVSKLTVDKSRWQQGNVFSCSVMHEALHNHYTQKSLSLSP chain 3: DIQMTQSPSSLSASVGDRVTITCRASQDIHKYIAWYQQKPGQAPRLLIQYTSTLQPGVPSRFSGSGSGTDYTFTISSLQPEDIATYYCLQYEQLRTFGGGTKVEIKRTVAAPSVFIFPPSDEQLKSGTASVVCLLNNFYPREAKVQWKVDNALQSGNSQESVTEQDSKDSTYSLSSTLTLSKADYEKHKVYACEVTHQGLSSPVTKSFNRGEC
4 | – | – | – | – | – | – | – | – | – | – | – | – | – | 380 | 24 | 0.27 | 38 | 16 | 14 | H240-Kn180/H240-Hl089/L73-k0 (antibody) chain 1: QDQLVQSGAEVKKPGASVKVSCKASGFNIKDTYIQWVRQAPGQGLEWMGRIDPLRKQTKYREKFEGRVTITADTSTNTAYMELSSLRSEDTAVYYCVRSGREFDYWGQGTLVTVSSASTKGPSVFPLAPSSKSTSGGTAALGCLVKDYFPEPVTVSWNSGALTSGVHTFPAVLQSSGLYSLSSVVTVPSSSLGTQTYICNVNHKPSNTKVDKKVEPKSCDKTHTCPPCPAPEYYWGPMVFLFPPKPKDTLMISRTPEVTCVVVDVSDEDPEVKFNWYVDGVEVHNAKTKPRERQYNATYRVVSVLTVLHQDWLNGKEYKCKVSNKDLPAPIEKTISKAKGQPREPQVCTLPPSRDELTKNQVSLWCLVKGFYPSDIAVEWESNGQPENNYKTTPPVLDSDGSFFLYSKLTVDKSRWQQGNVFSCSVMHEALHNHYTQKSLSLSP chain 2: QDQLVQSGAEVKKPGASVKVSCKASGFNIKDTYIQWVRQAPGQGLEWMGRIDPLRKQTKYREKFEGRVTITADTSTNTAYMELSSLRSEDTAVYYCVRSGREFDYWGQGTLVTVSSASTKGPSVFPLAPSSKSTSGGTAALGCLVKDYFPEPVTVSWNSGALTSGVHTFPAVLQSSGLYSLSSVVTVPSSSLGTQTYICNVNHKPSNTKVDKKVEPKSCDKTHTCPPCPAPELLTGPSVFLFPPKPKDTLMISRTPEVTCVVVDVSHEEPEVKFNWYVDGVEVHNAKTKPREEQYNSTYRVVSVLTVLHQDWLNGKEYKCKVSNDALPKPIEETISKAKGQPREPQVYTLPPSRCELTKNQVSLSCAVKGFYPSDIAVEWESNGQPENNYKTTPPVLDSDGSFFLVSKLTVDKSRWQQGNVFSCSVMHEALHNHYTQKSLSLSP chain 3: DIQMTQSPSSLSASVGDRVTITCRASQDIHKYIAWYQQKPGQAPRLLIQYTSTLQPGVPSRFSGSGSGTDYTFTISSLQPEDIATYYCLQYEQLRTFGGGTKVEIKRTVAAPSVFIFPPSDEQLKSGTASVVCLLNNFYPREAKVQWKVDNALQSGNSQESVTEQDSKDSTYSLSSTLTLSKADYEKHKVYACEVTHQGLSSPVTKSFNRGEC
